Assay results as given in US7998940B2, “Aptamers to von Willebrand factor and their use as thrombotic disease therapeutics” (Archemix Corp., priority 2004, dated 2011).
Changes are numbered by the printed parent chain.

B1: AMX238.F7: DNA SELEX 2 aptamer clone (nucleic acid)
DNA: CTACCTACGATCTGACTAGCAAGGGGATTGGCTCCGGGTCTGGCGTGCTTGGCATCTTTGGCTTACTCTCATGTAGTTCC
modifications: DNA, backbone not given here
notes: DNA SELEX 2 aptamer clone
B2: AMX237.E2: DNA SELEX 2 aptamer clone (nucleic acid)
DNA: CTACCTACGATCTGACTAGCTCCAGTGTTTCATCTAATAACCGTGCGGTGCCTCCGTGAGCTTACTCTCATGTAGTTCC
modifications: DNA, backbone not given here
notes: DNA SELEX 2 aptamer clone
B3: AMX237.B4: DNA SELEX 2 aptamer clone (nucleic acid)
DNA: B2 DNA with T35C, C52T
modifications: DNA, backbone not given here
notes: DNA SELEX 2 aptamer clone
B4: AMX237.E9: DNA SELEX 2 aptamer clone (nucleic acid)
DNA: B2 DNA with C31T, A32G
modifications: DNA, backbone not given here
notes: DNA SELEX 2 aptamer clone
B5: AMX238.D5: DNA SELEX 2 aptamer clone (nucleic acid)
DNA: B2 DNA with C31T, C34T, T35C, C51T
modifications: DNA, backbone not given here
notes: DNA SELEX 2 aptamer clone
B6: AMX238.D8: DNA SELEX 2 aptamer clone (nucleic acid)
DNA: B2 DNA with C31T, T35C, T38C
modifications: DNA, backbone not given here
notes: DNA SELEX 2 aptamer clone
B7: AMX236.F7: DNA SELEX 2 aptamer clone (nucleic acid)
chain: CTACCTACGATCTGACTAGCCCCCACTTATCGTGTACCTTATGATATGTCGAATACTCTTGCTTACTCTCATGTAGTTCC
modifications: DNA, backbone not given here
notes: DNA SELEX 2 aptamer clone
B8: AMX237.F9: DNA SELEX 2 aptamer clone (nucleic acid)
DNA: CTACCTACGATCTGACTAGCTTGGTAGCGATTCTGTGGAGCTGCGGTTTGGTCGACGTCAGCTTACTCTCATGTAGTTCC
modifications: DNA, backbone not given here
notes: DNA SELEX 2 aptamer clone
B9: AMX237.C9: DNA SELEX 2 aptamer clone (nucleic acid)
DNA: B8 DNA with C28T, T31C, C33T
modifications: DNA, backbone not given here
notes: DNA SELEX 2 aptamer clone
B10: AMX237.F12: DNA SELEX 2 aptamer clone (nucleic acid)
DNA: B8 DNA with C33T
modifications: DNA, backbone not given here
notes: DNA SELEX 2 aptamer clone
B11: AMX238.D9: DNA SELEX 2 aptamer clone (nucleic acid)
DNA: CTACCTACGATCTGACTAGCCAGTTCTGGGAAAAATCATTTTTTATTTCGATCGTATTTGCTTACTCTCATGTAGTTCC
modifications: DNA, backbone not given here
notes: DNA SELEX 2 aptamer clone
B12: AMX236.B3: DNA SELEX 2 aptamer clone (nucleic acid)
chain: CTACCTACGATCTGACTAGCCTTACCTATTCCCTTCTGCGGAATACGTCGAGTACTATGCTTACTCTCATGTAGTTCC
modifications: DNA, backbone not given here
notes: DNA SELEX 2 aptamer clone
B13: AMX236.G1: DNA SELEX 2 aptamer clone (nucleic acid)
chain: CTACCTACGATCTGACTAGCCTCAGATTGACTCCGGCTGACTTGTTTTAATCTTCTGAGTGCTTACTCTCATGTAGTTCC
modifications: DNA, backbone not given here
notes: DNA SELEX 2 aptamer clone
B14: AMX238.E7: DNA SELEX 2 aptamer clone (nucleic acid)
DNA: CTACCTACGATCTGACTAGCGTGCAGTGCCTATTTTAGGCCGTGCGGTGCCTCCGTCACGCTTACTCTCATGTAGTTCC
modifications: DNA, backbone not given here
notes: DNA SELEX 2 aptamer clone
B15: AMX237.C11: DNA SELEX 2 aptamer clone (nucleic acid)
DNA: B14 DNA with T35C, C59T
modifications: DNA, backbone not given here
notes: DNA SELEX 2 aptamer clone
B16: AMX238.F2: DNA SELEX 2 aptamer clone (nucleic acid)
DNA: B14 DNA with G21A, T31C, T35C, C59T
modifications: DNA, backbone not given here
notes: DNA SELEX 2 aptamer clone
B17: AMX238.F3: DNA SELEX 2 aptamer clone (nucleic acid)
DNA: B14 DNA with C40T, T48G
modifications: DNA, backbone not given here
notes: DNA SELEX 2 aptamer clone
B18: AMX237.F10: DNA SELEX 2 aptamer clone (nucleic acid)
DNA: CTACCTACGATCTGACTAGCGTGCAGTGCCCATTCCAGGCCGTGCGGTATCCTCCGTCACGCTTACTCTCATGTAGTTCC
modifications: DNA, backbone not given here
notes: DNA SELEX 2 aptamer clone
B19: AMX237.C5: DNA SELEX 2 aptamer clone (nucleic acid)
DNA: B18 DNA with C31T, T34C, C35T
modifications: DNA, backbone not given here
notes: DNA SELEX 2 aptamer clone
B20: AMX236.H2: DNA SELEX 2 aptamer clone (nucleic acid)
chain: B18 DNA with C31T, T34C, T50G
modifications: DNA, backbone not given here
notes: DNA SELEX 2 aptamer clone
B21: AMX237.D11: DNA SELEX 2 aptamer clone (nucleic acid)
DNA: CTACCTACGATCTGACTAGCTCCAGTGTTTTATATAATAACCGTGCGGTGCCTCCGTGATGCTTACTCTCATGTAGTTCC
modifications: DNA, backbone not given here
notes: DNA SELEX 2 aptamer clone
B22: AMX237.F6: DNA SELEX 2 aptamer clone (nucleic acid)
DNA: B21 DNA with A34C
modifications: DNA, backbone not given here
notes: DNA SELEX 2 aptamer clone
B23: AMX236.F8: DNA SELEX 2 aptamer clone (nucleic acid)
chain: B21 DNA with A34C, T35C
modifications: DNA, backbone not given here
notes: DNA SELEX 2 aptamer clone
B24: AMX237.C7: DNA SELEX 2 aptamer clone (nucleic acid)
DNA: B21 DNA with A34T, T35C
modifications: DNA, backbone not given here
notes: DNA SELEX 2 aptamer clone
B25: AMX238.G6: DNA SELEX 2 aptamer clone (nucleic acid)
DNA: B21 DNA with A34C, T35C, T49G
modifications: DNA, backbone not given here
notes: DNA SELEX 2 aptamer clone

system: rabbit vWF A1 domain (SEQ ID NO 6); assay: 3-point dot blot screen, rabbit vWF A1 domain; type: binding; settings: 3-point dot blot screen, 20 nM rabbit vWF A1 domain; ratio of fraction of aptamer bound with target protein to fraction bound without protein
In short: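 Rabbit vWF A1 domain binding was screened by dot blot using three conditions: no target protein, human vWF, and rabbit vWF A1 domain at 100 nM (20 nM in the screen run twice). Radiolabeled aptamer bound to nitrocellulose was quantified, and results are expressed as the ratio of bound fraction with protein to bound fraction without protein.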

Chain of rabbit vWF A1 domain (SEQ ID NO 6) (as listed by the source): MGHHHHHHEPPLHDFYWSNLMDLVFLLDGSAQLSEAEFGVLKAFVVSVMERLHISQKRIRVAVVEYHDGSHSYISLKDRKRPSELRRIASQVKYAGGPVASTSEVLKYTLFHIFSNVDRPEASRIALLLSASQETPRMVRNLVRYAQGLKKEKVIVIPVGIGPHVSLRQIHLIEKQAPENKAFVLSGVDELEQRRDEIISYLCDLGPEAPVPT

Row | Molecule | Screen Rabbit/No Protein
1 | B1 | 1.88
2 | B2 | 1.61
3 | B3 | 1.38
4 | B4 | 2.06
5 | B5 | 1.40
6 | B6 | 1.97
7 | B7 | 1.20
8 | B8 | 2.31
9 | B9 | 2.19
10 | B10 | 2.08
11 | B11 | 0.97
12 | B12 | 1.41
13 | B13 | 1.51
14 | B14 | 2.83
15 | B15 | 1.95
16 | B16 | 2.76
17 | B17 | 2.72
18 | B18 | 2.90
19 | B19 | 2.36
20 | B20 | 2.06
21 | B21 | 1.17
22 | B22 | 1.21
23 | B23 | 1.13
24 | B24 | 1.16
25 | B25 | 1.22

system: full length human vWF; assay: 3-point dot blot screen, full length human vWF; type: binding; settings: 20 nM full length human vWF, ratio of fraction of aptamer bound with target protein to fraction bound without protein
Source text: When a significant positive ratio of binding of DNA in the presence of human or rabbit vWF A1 domain versus in the absence of protein was seen, the pools were cloned using the TOPO TA cloning kit (Invitrogen Cat. #45-0641, Carlsbad, Calif.) according to the manufacturer's instructions. Round 7 and 11 pool templates were cloned and sequenced (218 total sequences), producing 146 unique clones within 12 sequence families of which sequences from six families show vWF target binding activity. All unique clones were assayed twice in a 3-point dot blot screen (no protein target control, 20 nM full length human vWF (Calbiochem Cat. #681300, La Jolla, Calif.), or 20 nM rabbit vWF A1 domain. The data is presented in the third and fourth columns of Table 17 below as the ratio of the fraction of the aptamer bound to the nitrocellulose in the presence of the target protein to the fraction of aptamer bound in the absence of the target protein.

Row | Molecule | Screen- Human/No Protein
26 | B1 | 1.20
27 | B2 | 1.61
28 | B3 | 1.42
29 | B4 | 2.13
30 | B5 | 1.46
31 | B6 | 2.02
32 | B7 | 1.18
33 | B8 | 2.21
34 | B9 | 2.05
35 | B10 | 1.95
36 | B11 | 1.22
37 | B12 | 1.54
38 | B13 | 1.47
39 | B14 | 3.02
40 | B15 | 2.04
41 | B16 | 2.84
42 | B17 | 2.83
43 | B18 | 2.90
44 | B19 | 2.55
45 | B20 | 2.12
46 | B21 | 1.16
47 | B22 | 1.20
48 | B23 | 1.14
49 | B24 | 1.15
50 | B25 | 1.25
